Reference: the DeepSol protein solubility set

Test: soluble on expression in E. coli; label from the status in PepcDB or PDB records

Row | Sequence | soluble on expression in E. coli
1 | MGSDKIHHHHHHMLVVGASGSGKSTFANCINGLIPFKTKGNITGELYINNQDATVSCLHDRSNVVGTVLQDTDGQFIGLTAAEDMAFLLENNCVEQDDMKKNVSYWAEKVGMIEHLNHRPQDLSGGQKQRVSLGGILIHRTPILILDEPLANLDPATGHETLRLLNNIHEETKSTMIIVEHRLEESLDDTFDRVLLFKDGKIIANTTPSDLLKSSKLKEAGIREPLYCTALKYAEVDVESIDNLANLRDVCMSEHVKFKVKKWIDETSANNDNKYKSEPLLELNEVCVQYSDYSNSVLNNVQLNVYRREMLSIVGHNGAGKSTLAKAICGFLDITGNIQFCNRGFNQLSISERSEFVGYVMQNPNHMISEKMIYDEVALGLRARGMKESDIKIRVENVLKICGLYAFRNWPIAALSYGQKKRVTIASVLVLNPEIIILDEPTAGQDFYHYNEIMSFLIELNRQGKTIIMITHDMHLLSEYSSRTVVLSKGQVVADTTPVLILNDKKICEIASLRQTSLFEMAEYIGISEPQKLVQLFINHDRKVRRQ | not soluble
2 | LYWGDGQVWFDLPDKVTTHDSQLVGNLTELLKSVEHSFVLISPYFIPTEAGTKALTNAAKRGVDITIVTNSLASNDVFAVHGWYAKYREDLLESGIKLWEVKSSAKLKSKWSLTGSSRASLHAKAMTIDDKTLFVGSMNWDPRSAALNTEMAVVIEQPEYVQAFLAKLPSQLKDNAYRLTLRDGDIVWTNTKTGEEYDSEPEAGVFRRLGAWFSGILPIEDQL | not soluble
3 | MGSDKIHHHHHHMLVASLVLLGLYDLFQAKHSILRNFPVIGHMRYLLEMIGPELHQYFVESDTDGKPINKNHRNYIYERAKEQNQTRPFGTQLNVYDDNYKWMQHSIYPAKKMDTPPRVVIGGKDCQQPYSASLFNISAMSFGALSKNAIQALNLGAKAGEFFHDTGEGGISEYHLQGGDLVWEIGTGYFGCRTGNGCFDAEKFKQKANWE | not soluble
4 | MGSDKIHHHHHHMNLKDKTLLITGIDEFVGLRTAELAIAQGMKVRGLKSSTEQNKQLQNLGVEIIIGSITDSTIAQKACQGVDIVLHTDQLAEEAGAIKNFRDVNVGGTVNMAKAAKQAGVKTFVHLSSVMVYGFNYPNGVTESGPLSGENNPYCETKIEAETAVLELNNPPDFGIIVIRAGDVYGPGSIPWIVRPVLMMRQKLFACANDGKGVINHVYIDNLIDGIFLAIEKETYGEIFNITDGQETSWKEYFMRLAAMEGLSAPLSLPKDEIKLFLKLRVQGQKLFRKKVDILPESIDFMTRPYACSIVKAQSMLNYKPTIHLEEGMQRTHEWLQKTDIQSLIK | not soluble
5 | MNQPLAGYAPAPAGARMENHGNHMLKVAMQTGNDLLARVGSMTAYEGFVQYEPNPPAVRQIAKDWMTGEGAPLMKCSGDGLLYLADYGANVVVINLNGDGISVNATNLLAFDAHLTWGVERVKGLAKFAGQGLWNTKISGQGWVALTSRGKPIVVDCGGGEDETYVDPDALVAWSPNLKVKGKRSFKAQSLIGRGSGEAFQMAFSGQGIVVVQPSEDSTDRLRVRGLEHHHHHH | not soluble
6 | MSVASNRDAVVTARRRFFGEGRSVDGMLAAPILRSWQRCAGQGLDASRSPLVEPPTARELREFQERHDRLGRLARPELNALQGDARLTGSVVILTDAAGVVLDMIGSDEFAGRAAQVALRPGVSWSEADTGTNAIGTALVERQPIAVHGAEHFFERHRILACAAAPLIDPRGVVAGALDMTGPAAIRHVHALGLMRLAAEQIEHRFFTEGFEHCTMLRLHTDRALLGTPREGVLAFADGVLVGANRHGLDLMNLDWPALDLARLETLLPGVRPSDQIQMLRGPRGTRLWGRLVDPLRRSPRAPAASMPAAVPAAPAGEVEPILDAEMMAQLSRTVRLVEAGIPVLLLGETGSGKDVFARRVHAESARRNKPFVPVNCAALPEGLIESELFGYEAGAFTGARRQGAPGLLRQADGGVLFLDEIGDMPLSLQSRLLRVLQDKQISPLGGGRPVPVDFALICATHQPLGTLLAAGAFRQDLYFRIAQYVVERPPVRHHPDRLALVRTLWRQLGGEDAGVQLSAEVERVLAAYNWPGNYRQLVGTLRALLVLGEPGHPVEVAALPAEITAAAGAVESQVSEMLPGTSLAEQTRSVLQAALDASGGNVSRAARRLGIDRSTYYRRLLKDKDRGR | not soluble
7 | MVLQIMLLTKPVPLYPPYIDLCDFDFDDYPQLDKIFSSNEPWWLEQFNWGKIFLTYIGRNKSAHTYERFRNDVERFLLWSFIVKKKPIDQLRKSDLLEYADFCWQPPVDWIGTSNQERFKITNGYSAANELWFPYKIQAPKSLKSQFVIDKKKYRPSQQTLSSMFTAIIVFYNYLMAEDFCIGNPAQIAKKDCRHFIIDSQVKEIKRLTGSQWQFVLDTAVEMADENAMFERNLFVIASLKTLFLRISELSERPNWSPTMGHFWQDDDENWWLKIFGKSRKLRDITVPIDFLPFLERYRASRGLLGLPSSNENSILVEKVRGQGGMTSRHLRRLVQSVFDQAHENMRRSEGENKALKLKEASAHWLRHTGASMEIERGRPLKDISEDLGHASMATTDTVYVQSENKKRAESGKRRKVD | not soluble
8 | MREQSGINGHEQLATFIDRTDRVLNLVDGFMPETAWLSDIETLTYLHATVSTHRHQVRVPETPMHLDAILADQVLTGGLEPRLGQAHLRTLTIMGFPSQTWPGLLDDLNRLAFDYRWVTRAICLDKTDAAKVLGRIRRQWFAKRKSIAAMLKEIMTNEASALMDSDAANKAVDADMALQELGSDLVGAAYVTATVTIWNDDPRIADERLRLVEKVIQGRDFTCMVERVNAVEAWLGSLPGHVYANVRQPPVSTLNLAHMMPFSAVWAGPERDEHFDAPPLFLAKTEGSTPFRFSLHVGDVGHTLVVGPTGAGKSVLLALMALQFRRYARSQIFAFDFGGSIRAAALAMRGDWHDLGGSLAEDASEPVALQPLAGIDAEEERAWAAEWVAAILAREKVEITPDVKEHVWSALNNLASAPKSERTLTGLSVLLQSQALKQALKPYCVGGPWGRLLDAETERVGSADVLAFETEGLIGTGAAAAVLAYLFHRIEHRLDGRPTLLIVDEGWLALDDEGFASQLREWLKTLRKKNASVIFATQSLADIDGSAIAPAIIESCPTRLFLPNERALEPQIATIYERFGLNDRQIEILSRATPKRDYYCQSRRGNRLFELGLGEVALAFTAASSKGDQILIARLMAEHGPTGFAKAWLEARGVAWATDLIITPQKEKLPLEHHHHHH | soluble
9 | MAHIVIVGAGLGGLPTAYELRHILPKQHQVTVISETPYFTFIPSLPWVAMGLTSLESIQVSLQQRLKQKGINWILGRVDYLNPQNQKISLGEQSISYDYLIIATGAELALDAVAGLGPDGYTQSVCNPHHAIKAFQAWQNFLLAPGPLVVGALPKTSCLGPAYEFTLLADYVLRKQGLREQVSITFVTPEPYAGHLGIGGMANSAELVTKFMAERGVEVIENVAVTAIEANQIHLGNGRVLPFAYSMLLPPFRGPRFVRQVPGLSNQDGFIPVLPTYRHPEYASIYAVGVVVEIKPSEVTPLPLGVPKTGQMTEAMGMAVAHNIAIELGVFSAPPVTPTLDAICFADFGNSGILFLANPVLPDLATGKRRRAVALSGAWVTWAKAAFERYFLAKMRFGTAVPWFEKLALKLLGLSLVAPLAVKSSRNISQENYLEHHHHHH | not soluble
10 | MGSDKIHHHHHHDLTEEIHSSVIAENYYNNAGEVMAAMMRPWGHFCGTMQVAQSPWSCNELSSDCAAWPQKGRHGYDNGDWIRLHRHQWIPTDGQVVDAWKKLFEGIGYANNFLTDTENIDFEALQVPMSKAQAQAEMRVYRAYCYWYVMDMFGTAPICEKIGEINPSSKSRAELFAWIEKELNESIPSLSESKTETYGRVSKWGAYALLARLYLNAEIYTGQARWDDCIAACDELAKGGFALDKKWNDTFRADNDKRSTEIIWSIVYDEVYAKGMGWYQRWLHYAHQTGWDLQSGPWNGLVTQPTFYDSFADNDLRKIEGFLIGKQYPRKVDENGNYYYDTTAEPLKGSEEYNGQDLVFVNYIKSMTEGEENSGARSIKYEIQPGTTGDMNNDWVMFRYSEVIYNKAEALMRKNGGKATQEVVDMINSVRQRSFKAEDWEKAKYTTATLTMDEFLAEKGREFAFEGIRRTDLVRFNKFVTTSWWDKTASNEPKRNIFPIPQRQLDANANLSPNEANSLF | not soluble
11 | MFFSHETILLICYNMLTLSKKISRIASEMIMKTKLIVVAGPTAVGKTALGIELAERFNGEIISGDSQQVYRQLNIGTAKATPEEQAAAVHHLIDVRDVDESYSAYDFVTEAQAAITDIVSRGKLPIIVGGTGLYLQSLLEGYHLGGKVDQNQVLAYRSELEQLSDQQLFEKIDSLGIEIKEINRRRAIRALELYRFSDNLENTETCYEPFIIGLDDERSLIYDRINTRVDKMVELGLLEEAKWLYDNFPEAQSARGIGYKELFPYFSGEQTLDEALEKLKQNTRRFAKRQLTWFRNRMTVSFYQISSPEYPENVIQDLAIFLNEEEGEKLEHHHHHH | soluble
12 | DPDIQSTVEAMLLDRVDALPPKVSMAVLVMDNDSLEVKAYAGSADFTDDSRYAHVDMVRGVRSPGSTLKPFLYALALDEGLIHSESLLLDAPLSFGGYAPGNFQAAFAGPVSVAQALQRSLNVPAVDLLDRVGPARFASVMLAGGVHLRMPAGAVPNLSLILGGGGTTLEELVGAYRALARGGLSGRPRLRASQPRIEARLMSPGAAWIVRDILELGGHPDRPLFQGAAAGRQLAWKTGTSFGFRDAWAVGVTDRYTIGAWVGRPDGTPNPGFFGANVAAPLLQDIVAALPAGAPVPRT | not soluble
13 | MSLESIKVVIVGGGQAGIAMGYYLVKEKVPFMILDANEQVGDSWRNRYDSLVLFTPRTYSQLPGFPMDGAPNGFPTKDEMASYLQQYANHFNLPMRHHTKVDRVTRQQNGRFHLKTTNGWIEAEKVVIATGAFQKPYLPPVLDSANNEMSQVHSSAYRNPAQIPGKSVLVVGGGNSGAQIAVELAKERNVTMAISHPFRFLPLKLLNKSMFSWLEWGGLLYAGIDTTRGRWFKKQKDPIFGKELKSLIKKGQIHLKPRVMNVQGKEVEFADHSRLSFDRIIWSTGFSPSYEWIDIDGVIATNGWPIHNRGITNIRGLYFLGLPWQYQRGSALVCGVGRDAEYLVPFIKHGDKEGHHHHHH | soluble
14 | MENSDDIRLIVKIAQLYYEQDMTQAQIARELGIYRTTISRLLKRGRDQGMVTIAINYDYNENLWLEQQLKQKFGLKDVVVVSGNDEDEETQLAMMGLHGAQLLDRLLEPGDIVGFSWGRAVSALVENLPQAGQSRQLICVPIIGGPSGKLESRYHVNTLTYSAAAKLKGESHLADFPALLDNPLIRNGIMQSQHFKTISAYWDNLDIALVGIGSPAIRDGANWHAFYGGEESDDLNARQVAGDICSRFFDIHGAMVETNMSEKTLSIEMNKLKQARYSIGIAMSEEKYSGIIGALRGKYINCLVTNSSTAELLLK | soluble
15 | GPGSMMEPTRNAEYSKQEYWDRRYTEEEHYDWFPSVYPMCVAAAFETVEAVYRVQRSTGAFNGTLKVLHLGTGNSTLCADIRATYEAKYPTEDSRPYRLVQAATDYSAVVIDRMQAKYGLAHPLEDVHWVVADIRDLSRVREQFGPFFDVVLDKGTMDALQADKANQNMEDDIERMLCEVSRCVEGGAGTRVYRVFVQITWEIPYLRLYYTTRNATHTFAWGTNVTYRFLGESDMYRVYTYEVSPPSSE | soluble
16 | GETSVPPGSALVGPSCVMDDFRDPQRWKECAKQGKMPCYFDLIEENVYLTERKKNKSHRDIKRMQCECTPLSKDERAQGEIACGEDCLNRLLMIECSSRCPNGDYCSNRRFQRKQHADVEVILTEKKGWGLRAAKDLPSNTFVLEYCGEVLDHKEFKARVKEYARNKNIHYYFMALKNDEIIDATQKGNCSRFMNHSCEPNCETQKWTVNGQLRVGFFTTKLVPSGSELTFDYQFQRYGKEAQKCFCGSANCRGYLGGENRVSIRAAGGKMKKERSRK | soluble
